Experimental data from patent US11241502B2, “Stable compositions of pegylated carfilzomib compounds” (AMGEN INC., priority 2017, dated 2022).

Columns and labels:
[1] = tested on: human colorectal adenocarcinoma cancer cell; experiment: mouse xenograft model of human colorectal adenocarcinoma; settings: once-weekly intravenous dosing; Example 13 200 mpk or 150 rising to 250 mpk after 3 week; CFZ-captisol 5 mpk; within 19 days of the first dose
[2] = reverse phase assay of main API peak (integrity of the molecule); assay type: physicochemical
Method: In order to identify stable formulations of PEG-CFZ, various formulations were made wherein the desired pegylated carfilzomib compound (API) was dissolve in experimental compositions of excipients, and the stability and quantity of the intact, non-degraded API was monitored and measured in the frozen state (−20° C. or below). Formulations of API was also prepared and tested to determine the ability of each exemplary formulation to provide adequate stability in the liquid state to be suitable for clinical and commercial administration. Here, these formulations were stored at least 8 hours at room temperature and 2 days at a temperatures ranging from 2-8° C. All formulations that were tested contained desired API compounds at 1 mg/mL concentrations.
For each formulation, the stability of the API was tested using three observable and/or measurable characteristics, as follows: • 1. Integrity of the molecule, as assessed by the reverse phase assay; • 2. Clarity of the solution, via visual assessment; and • 3. Concentration of the API material in the solution, as assessed by material recovery after centrifugation Results
FIG. 2 illustrates results of similar measurements taken with the same formulations prepared with exemplary pegylated carfilzomib compound no. 39 instead of example 26. API material recovery is similarly shown in red and percent main API peak at To and T3, as measured by the same reverse phase assay, after storage at 25° C. for 3 days, is shown. Solutions for temperature and time storage conditions were generally prepared as follows—CFZ API was dissolved in formulation buffer by stirring at room temperature for a period of 5 minutes until complete dissolution. Samples were then sterile filtered using 0.2 micron PES filters under aseptic conditions into 3 cc vials, using a 1 ml fill. […]
The percent recovery of the exemplary pegylated carfilomib compounds were measured as a function of reverse phase assays for the peak(s) representing the active molecule/compound. The percent was determined based on the area under the curve, as described below. The reverse phase assays were conducted as follows—CFZ samples were analyzed by reverse phase using a Phenomenex Gemini C18, 50×4.6 mm, 3 micron particle size column with a 47 minute HPLC method. […] Main peak percentage was determined by taking Area Under the Curve integration. […] The concentration of each unknown sample was calculated using the equation of the trend-line generated from this calibration curve by plugging in the total integrated area.
For each exemplary formulation, the stability of the API was tested or measured by six different criteria or methods, as follows: • 1. Integrity of the molecule, as assessed by the reverse phase assay; • 2. […]

[3] = in humans; cited from earlier work

## 4-((4S,7S,10S,13S)-10-Benzyl-7-isobutyl-15-methyl-13-((R)-2-methyloxirane-2-carbonyl)-2,5,8,11-tetraoxo-4-phenethyl-3,6,9,12-tetraazahexadecyl)-4-(3-((1-(PEG20K-4-Arm)-1H-1,2,3-triazol-4-yl)methoxy)-4-(pivaloyloxy)benzyl)morpholin-4-ium Formate [Example 13]
[1]
  tumor growth compared to vehicle control: significant attenuation of tumor growth

## 4-((4S,7S,10S,13S)-10-Benzyl-7-isobutyl-15-methyl-13-((R)-2-methyloxirane-2-carbonyl)-2,5,8,11-tetraoxo-4-phenethyl-3,6,9,12-tetraazahexadecyl)-4-(4-(isobutyryloxy)-3-((PEG5K-imino)methyl)benzyl)morpholin-4-ium Methanesulfonate [Example 26]
[2]; 5kPEG-CFZ compound example 26, 25° C. (8 h), 4° C. (in 1 week) and −70° C. (in 2 weeks)
  main API peak loss (Table 6): minimal main API peak loss
[2]; A5Su formulation, API at 20 mg/mL, storage at 4° C.
  main API peak loss, 4° C. Loss per 1 week: 0.0
[2]; A5Su formulation, API at 20 mg/mL, storage at 25° C.
  main API peak loss, 25° C. loss per 8 hr: 0.0
[2]; A5Su formulation, API at 20 mg/mL, storage at −70° C.
  main API peak loss, −70° C. loss per 2 weeks: 0.0

## CC(C)C[C@H](NC(=O)[C@H](CCc1ccccc1)NC(=O)CN1CCOCC1)C(=O)N[C@@H](Cc1ccccc1)C(=O)N[C@@H](CC(C)C)C(=O)[C@@]1(C)CO1 [Carfilzomib]
[3]
  half-life in-vivo: ≤ 1 h
